Test results published in article PMC10116596 (Biochemistry, 2023).

Columns and labels:
[1] = molecular target: T1, LcrH_(1–168), class II chaperone LcrH from Y. pestis (Y. pestis, UniProt P21207 1-168); test: ITC; conditions: both partners purified
T1 construct: also called LcrH/SycD
T1 sequence: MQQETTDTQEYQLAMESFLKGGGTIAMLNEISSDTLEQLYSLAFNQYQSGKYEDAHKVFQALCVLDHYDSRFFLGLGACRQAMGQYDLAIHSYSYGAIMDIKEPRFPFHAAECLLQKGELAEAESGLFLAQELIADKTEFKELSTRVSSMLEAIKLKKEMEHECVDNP

LcrH = molecular target: LcrH; parameters: method as in PMID 23233673; conditions: unbound chaperone weak homodimer; read-out: dimerization KD; cited from earlier work

Molecule | Kd [1] [µM] | dH [1] [kcal/mol] | Kd (LcrH) [µM]
QVPELIKPSQ (source: synthetic peptide) [YopD_(56–65) 10 mer N-terminal anchor peptide of the minor translocator YopD] | 82 | -12.2 | –
QGVQLPAPLA (source: synthetic peptide) [YopB_(48–57) 10 mer N-terminal anchor peptide of the major translocator YopB] | 155 | -10.5 | –
LcrH: class II chaperone from Yersina Sp., forms weak homodimers when unbound (protein) MQQETTDTQEYQLAMESFLKGGGTIAMLNEISSDTLEQLYSLAFNQYQSGKYEDAHKVFQALCVLDHYDSRFFLGLGACRQAMGQYDLAIHSYSYGAIMDIKEPRFPFHAAECLLQKGELAEAESGLFLAQELIADKTEFKELSTRVSSMLEAIKLKKEMEHECVDNP | – | – | ~15
